Tests used:
[1] = target: T1, Halo-KDELR-V5-VN (human) (UniProt P24390)
T1 sequence: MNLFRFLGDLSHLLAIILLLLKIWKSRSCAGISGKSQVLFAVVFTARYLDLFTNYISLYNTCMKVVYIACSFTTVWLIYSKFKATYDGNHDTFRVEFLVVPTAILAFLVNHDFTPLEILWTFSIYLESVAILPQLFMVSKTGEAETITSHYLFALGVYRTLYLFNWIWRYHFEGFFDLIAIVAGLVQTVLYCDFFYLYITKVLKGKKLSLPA

[2] = target: T2, KDELR-mCherry (HT1080 stable) (human) (UniProt P24390)
T2 sequence: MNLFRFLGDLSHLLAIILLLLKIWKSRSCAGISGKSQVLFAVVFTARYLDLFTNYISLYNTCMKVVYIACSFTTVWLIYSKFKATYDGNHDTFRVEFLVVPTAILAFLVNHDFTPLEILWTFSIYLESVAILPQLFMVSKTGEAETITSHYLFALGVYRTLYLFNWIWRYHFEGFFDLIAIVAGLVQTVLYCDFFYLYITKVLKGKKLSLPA

Venus signal of Halo-KDELR-V5-VN with Halo-KDELR-myc-VC (split Venus), 30 min against 0 min with 50 μM TAEKDEL peptide [1]: 2 fold | phosphorylation of STAT3 (Tyr705) in HT1080 cells stably overexpressing KDELR-mCherry, 50 μM TAEKDEL at 37 °C for 30 min, western blot [2]: 37%
Binder: TAEKDEL [TAEKDEL peptide]
